Measured values taken from patent US20150322128A1 (Sanofi, published 2015).
Residue numbers refer to the chain shown, from its start. Numbered stars: 1 amine (or outer) side, 2 acyl side, 3 side chain; on linkers, the order of the positions; unused ones are H or OH. Square brackets hold non-standard residues; d marks the D form. Side chains are listed from the residue outwards. Ends that are not written are not given here. * marks the point of attachment. γGlu = O=C(O)[C@H](CCC(=O)[*:2])N[*:1]; Palmitoyl = CCCCCCCCCCCCCCCC(=O)*; Aib = CC(C)(N)C(=O)O

T1: human GIP receptor (human, UniProt P48546 22-466)
T1 sequence (looked up): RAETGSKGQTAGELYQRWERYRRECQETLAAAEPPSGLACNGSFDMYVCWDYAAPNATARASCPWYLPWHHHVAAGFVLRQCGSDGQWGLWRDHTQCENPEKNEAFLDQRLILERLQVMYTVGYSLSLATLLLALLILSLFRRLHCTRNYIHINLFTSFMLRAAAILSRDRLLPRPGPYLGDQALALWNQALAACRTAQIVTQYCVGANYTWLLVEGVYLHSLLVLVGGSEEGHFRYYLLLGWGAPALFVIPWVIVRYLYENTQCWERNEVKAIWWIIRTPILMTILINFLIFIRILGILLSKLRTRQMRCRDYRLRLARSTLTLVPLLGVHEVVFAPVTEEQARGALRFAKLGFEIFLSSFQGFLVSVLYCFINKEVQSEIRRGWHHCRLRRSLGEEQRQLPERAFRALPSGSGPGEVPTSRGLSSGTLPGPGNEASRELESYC

B1: SEQ ID NO: 16 (peptide)
peptide: H[dS]QGTFTSDLSKQK([γGlu-γGlu-Palmitoyl])EEEAARLFIEWL[Aib]AGGPSSGAPPPS-NH2
modifications: N-terminus assumed
SMILES: CCCCCCCCCCCCCCCC(=O)N[C@@H](CCC(=O)N[C@@H](CCC(=O)NCCCC[C@H](NC(=O)[C@H](CCC(N)=O)NC(=O)[C@H](CCCCN)NC(=O)[C@H](CO)NC(=O)[C@H](CC(C)C)NC(=O)[C@H](CC(=O)O)NC(=O)[C@H](CO)NC(=O)[C@@H](NC(=O)[C@H](Cc1ccccc1)NC(=O)[C@@H](NC(=O)CNC(=O)[C@H](CCC(N)=O)NC(=O)[C@@H](CO)NC(=O)[C@@H](N)Cc1c[nH]cn1)[C@@H](C)O)[C@@H](C)O)C(=O)N[C@@H](CCC(=O)O)C(=O)N[C@@H](CCC(=O)O)C(=O)N[C@@H](CCC(=O)O)C(=O)N[C@@H](C)C(=O)N[C@@H](C)C(=O)N[C@@H](CCCNC(=N)N)C(=O)N[C@@H](CC(C)C)C(=O)N[C@@H](Cc1ccccc1)C(=O)N[C@H](C(=O)N[C@@H](CCC(=O)O)C(=O)N[C@@H](Cc1c[nH]c2ccccc12)C(=O)N[C@@H](CC(C)C)C(=O)NC(C)(C)C(=O)N[C@@H](C)C(=O)NCC(=O)NCC(=O)N1CCC[C@H]1C(=O)N[C@@H](CO)C(=O)N[C@@H](CO)C(=O)NCC(=O)N[C@@H](C)C(=O)N1CCC[C@H]1C(=O)N1CCC[C@H]1C(=O)N1CCC[C@H]1C(=O)N[C@@H](CO)C(N)=O)[C@@H](C)CC)C(=O)O)C(=O)O
B2: SEQ ID NO: 9 (peptide)
peptide: HXQGTFTSDLSKQKDEEAARLFIEWLXAGGPSSGAPPPS
modifications: D-Ser at 2; Lys 14 side chain K(γE-γE-x53) = (S)-4-Carboxy-4-((S)-4-carboxy-4-hexadecanoylamino-butyrylamino)-butyryl-; Aib at 27; C-terminal amide
B3: SEQ ID NO: 11 (peptide)
peptide: HSQGTFTSDLSKQK([γGlu-γGlu-Palmitoyl])DEEAARLFIEWL[Aib]AGGPSSGAPPPS-NH2
modifications: N-terminus assumed
SMILES: CCCCCCCCCCCCCCCC(=O)N[C@@H](CCC(=O)N[C@@H](CCC(=O)NCCCC[C@H](NC(=O)[C@H](CCC(N)=O)NC(=O)[C@H](CCCCN)NC(=O)[C@H](CO)NC(=O)[C@H](CC(C)C)NC(=O)[C@H](CC(=O)O)NC(=O)[C@H](CO)NC(=O)[C@@H](NC(=O)[C@H](Cc1ccccc1)NC(=O)[C@@H](NC(=O)CNC(=O)[C@H](CCC(N)=O)NC(=O)[C@H](CO)NC(=O)[C@@H](N)Cc1c[nH]cn1)[C@@H](C)O)[C@@H](C)O)C(=O)N[C@@H](CC(=O)O)C(=O)N[C@@H](CCC(=O)O)C(=O)N[C@@H](CCC(=O)O)C(=O)N[C@@H](C)C(=O)N[C@@H](C)C(=O)N[C@@H](CCCNC(=N)N)C(=O)N[C@@H](CC(C)C)C(=O)N[C@@H](Cc1ccccc1)C(=O)N[C@H](C(=O)N[C@@H](CCC(=O)O)C(=O)N[C@@H](Cc1c[nH]c2ccccc12)C(=O)N[C@@H](CC(C)C)C(=O)NC(C)(C)C(=O)N[C@@H](C)C(=O)NCC(=O)NCC(=O)N1CCC[C@H]1C(=O)N[C@@H](CO)C(=O)N[C@@H](CO)C(=O)NCC(=O)N[C@@H](C)C(=O)N1CCC[C@H]1C(=O)N1CCC[C@H]1C(=O)N1CCC[C@H]1C(=O)N[C@@H](CO)C(N)=O)[C@@H](C)CC)C(=O)O)C(=O)O
B4: SEQ ID NO: 13 (peptide)
peptide: B2 peptide
modifications: D-Ser at 2; Lys 14 side chain K(γE-x70) = (S)-4-Carboxy-4-octadecanoylamino-butyryl-; Aib at 27; C-terminal amide
B5: SEQ ID NO: 14 (peptide)
peptide: B2 peptide
modifications: D-Ser at 2; Lys 14 side chain K(γE-x53) = (S)-4-Carboxy-4-hexadecanoylamino-butyryl-; Aib at 27; C-terminal amide
B6: SEQ ID NO: 6 (peptide)
peptide: H[dS]HGTFTSDLSKQK([γGlu-γGlu-Palmitoyl])EEEAARLFIEWL[Aib]AGGPSSGAPPPS-NH2
modifications: N-terminus assumed
SMILES: CCCCCCCCCCCCCCCC(=O)N[C@@H](CCC(=O)N[C@@H](CCC(=O)NCCCC[C@H](NC(=O)[C@H](CCC(N)=O)NC(=O)[C@H](CCCCN)NC(=O)[C@H](CO)NC(=O)[C@H](CC(C)C)NC(=O)[C@H](CC(=O)O)NC(=O)[C@H](CO)NC(=O)[C@@H](NC(=O)[C@H](Cc1ccccc1)NC(=O)[C@@H](NC(=O)CNC(=O)[C@H](Cc1c[nH]cn1)NC(=O)[C@@H](CO)NC(=O)[C@@H](N)Cc1c[nH]cn1)[C@@H](C)O)[C@@H](C)O)C(=O)N[C@@H](CCC(=O)O)C(=O)N[C@@H](CCC(=O)O)C(=O)N[C@@H](CCC(=O)O)C(=O)N[C@@H](C)C(=O)N[C@@H](C)C(=O)N[C@@H](CCCNC(=N)N)C(=O)N[C@@H](CC(C)C)C(=O)N[C@@H](Cc1ccccc1)C(=O)N[C@H](C(=O)N[C@@H](CCC(=O)O)C(=O)N[C@@H](Cc1c[nH]c2ccccc12)C(=O)N[C@@H](CC(C)C)C(=O)NC(C)(C)C(=O)N[C@@H](C)C(=O)NCC(=O)NCC(=O)N1CCC[C@H]1C(=O)N[C@@H](CO)C(=O)N[C@@H](CO)C(=O)NCC(=O)N[C@@H](C)C(=O)N1CCC[C@H]1C(=O)N1CCC[C@H]1C(=O)N1CCC[C@H]1C(=O)N[C@@H](CO)C(N)=O)[C@@H](C)CC)C(=O)O)C(=O)O
B7: SEQ ID NO: 32 (peptide)
peptide: B2 peptide with X27K
modifications: D-Ser at 2; Lys 14 side chain K(γE-γE-x53) = (S)-4-Carboxy-4-((S)-4-carboxy-4-hexadecanoylamino-butyrylamino)-butyryl-; C-terminal amide
B8: SEQ ID NO: 28 (peptide)
peptide: H[dS]QGTFTSDLSKQLDEEAARLFIEWL[Aib]AGGPSSGAPPPS-NH2
modifications: N-terminus assumed
SMILES: CC[C@H](C)[C@H](NC(=O)[C@H](Cc1ccccc1)NC(=O)[C@H](CC(C)C)NC(=O)[C@H](CCCNC(=N)N)NC(=O)[C@H](C)NC(=O)[C@H](C)NC(=O)[C@H](CCC(=O)O)NC(=O)[C@H](CCC(=O)O)NC(=O)[C@H](CC(=O)O)NC(=O)[C@H](CC(C)C)NC(=O)[C@H](CCC(N)=O)NC(=O)[C@H](CCCCN)NC(=O)[C@H](CO)NC(=O)[C@H](CC(C)C)NC(=O)[C@H](CC(=O)O)NC(=O)[C@H](CO)NC(=O)[C@@H](NC(=O)[C@H](Cc1ccccc1)NC(=O)[C@@H](NC(=O)CNC(=O)[C@H](CCC(N)=O)NC(=O)[C@@H](CO)NC(=O)[C@@H](N)Cc1c[nH]cn1)[C@@H](C)O)[C@@H](C)O)C(=O)N[C@@H](CCC(=O)O)C(=O)N[C@@H](Cc1c[nH]c2ccccc12)C(=O)N[C@@H](CC(C)C)C(=O)NC(C)(C)C(=O)N[C@@H](C)C(=O)NCC(=O)NCC(=O)N1CCC[C@H]1C(=O)N[C@@H](CO)C(=O)N[C@@H](CO)C(=O)NCC(=O)N[C@@H](C)C(=O)N1CCC[C@H]1C(=O)N1CCC[C@H]1C(=O)N1CCC[C@H]1C(=O)N[C@@H](CO)C(N)=O

biological target: T2, human GLP-1 receptor (human, UniProt P43220 24-463); assay: cell-based or functional assay

Binder | EC50 hGLP-1R [nM]
B1 | 0.0018
B2 | 0.0018
B3 | 0.0012
B4 | 0.0027
B5 | 0.0021
B6 | 0.0026
H[dS]HGTFTSDLSKQK([γGlu-γGlu-Palmitoyl])DEEAARLFIEWL[Aib]AGGPSSGAPPPS-NH2 [SEQ ID NO: 7] | 0.0015

biological target: T1, human GIP receptor; assay: cell-based or functional assay

Binder | EC50 hGIP-R [nM]
B1 | 7.78
B2 | 3.6
B3 | 0.56
B4 | 2.54
B5 | 5.36
B6 | 1.54
H[dS]HGTFTSDLSKQK([γGlu-γGlu-Palmitoyl])DEEAARLFIEWL[Aib]AGGPSSGAPPPS-NH2 [SEQ ID NO: 7] | 0.908

biological target: T3, human glucagon receptor (human, UniProt P47871 26-477); assay: cell-based or functional assay
T3 sequence (P47871 26-477): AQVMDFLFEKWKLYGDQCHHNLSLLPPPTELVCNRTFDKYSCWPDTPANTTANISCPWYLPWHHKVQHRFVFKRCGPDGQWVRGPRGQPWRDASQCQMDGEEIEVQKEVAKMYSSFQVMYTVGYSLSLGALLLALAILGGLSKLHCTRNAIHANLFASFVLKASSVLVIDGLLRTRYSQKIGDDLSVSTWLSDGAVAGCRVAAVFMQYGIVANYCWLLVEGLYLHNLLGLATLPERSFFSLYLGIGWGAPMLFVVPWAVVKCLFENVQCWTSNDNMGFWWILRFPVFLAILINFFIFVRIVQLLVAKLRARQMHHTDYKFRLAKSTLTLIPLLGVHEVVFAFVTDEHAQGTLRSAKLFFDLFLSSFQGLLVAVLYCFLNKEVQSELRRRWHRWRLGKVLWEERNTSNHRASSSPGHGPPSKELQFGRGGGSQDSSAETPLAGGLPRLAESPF

Binder | EC50 hGlucagon-R [nM]
B1 | 0.0354
B2 | 0.0118
B3 | 0.0051
B4 | 0.0068
B5 | 0.0247
B6 | 0.0177
H[dS]HGTFTSDLSKQK([γGlu-γGlu-Palmitoyl])DEEAARLFIEWL[Aib]AGGPSSGAPPPS-NH2 [SEQ ID NO: 7] | 0.009

biological target: T2, human GLP-1 receptor; assay: cell-based or functional assay; remark: another data set of the same source

Binder | EC50 hGLP-1R [nM]
B7 | 0.0019
B2 | 0.0018
B4 | 0.0027
B5 | 0.0021
B8 | 0.0038
H[dS]QGTFTSDLSKQLDEEAARLFIEWLKAGGPSSGAPPPS-NH2 [SEQ ID NO: 34] | 0.0008

biological target: T1, human GIP receptor; assay: cell-based or functional assay; remark: another data set of the same source

Binder | EC50 hGIP-1 [nM]
B7 | 0.565
B2 | 3.6
B4 | 2.54
B5 | 5.36
B8 | 343
H[dS]QGTFTSDLSKQLDEEAARLFIEWLKAGGPSSGAPPPS-NH2 [SEQ ID NO: 34] | 26

biological target: T3, human glucagon receptor; assay: cell-based or functional assay; remark: another data set of the same source

Binder | EC50 hGlucagon-R [nM]
B7 | 0.0055
B2 | 0.0118
B4 | 0.0068
B5 | 0.0247
B8 | 1.04
H[dS]QGTFTSDLSKQLDEEAARLFIEWLKAGGPSSGAPPPS-NH2 [SEQ ID NO: 34] | 0.338

biological target: T2, human GLP-1 receptor; assay: cell-based or functional assay; remark: another data set of the same source

Binder | EC50 hGLP-1R [nM]
B1 | 0.0018
B7 | 0.0019
B2 | 0.0018
B3 | 0.0012
B6 | 0.0026
H[dS]HGTFTSDLSKQK([γGlu-γGlu-Palmitoyl])DEEAARLFIEWL[Aib]AGGPSSGAPPPS-NH2 [SEQ ID NO: 7] | 0.0015

biological target: T1, human GIP receptor; assay: cell-based or functional assay; remark: another data set of the same source

Binder | EC50 hGIP-1 [nM]
B1 | 7.78
B7 | 0.565
B2 | 3.6
B3 | 0.56
B6 | 1.54
H[dS]HGTFTSDLSKQK([γGlu-γGlu-Palmitoyl])DEEAARLFIEWL[Aib]AGGPSSGAPPPS-NH2 [SEQ ID NO: 7] | 0.908

biological target: T3, human glucagon receptor; assay: cell-based or functional assay; remark: another data set of the same source

Binder | EC50 hGlucagon-R [nM]
B1 | 0.0354
B7 | 0.0055
B2 | 0.0118
B3 | 0.0051
B6 | 0.0177
H[dS]HGTFTSDLSKQK([γGlu-γGlu-Palmitoyl])DEEAARLFIEWL[Aib]AGGPSSGAPPPS-NH2 [SEQ ID NO: 7] | 0.009
